# Measured values: patent US20230348603A1
# B1: 15C03 mouse Fab (periplasmic extract) (Fab, V domains shown)
# VH: EVKLLESGPGLVKPSQSLSLTCTVTGYSITSDYAWNWIRQFPGNKLEWMGYISYSGSTRYNPSLKSRISITRDTSNNQFFLQLNSVTTEDTATYYCARSGYAAMDYWGQGTSVTVSS
# VL: ENVLTQSPAIMSASPGEKVTMTCRASSSVSSSYLHWYQQKSGASPKLWIYSTSNLASGVPARFSGSGSGTSYSLTISSVEAEDAATYYCQQYSGYPLTFGSGTKLEIK
# B2: 12A08 mouse Fab (periplasmic extract) (Fab, V domains shown)
# VH: EVMLVESGGGLVKPGGSLKLSCAASGFTFDDFYMYWVRQTPEKRLEWVASISDGGTYTYYPDSVKGRFTISRDNAKNTLYLQLSSLKSEDTAMYYCARGVDKYYYAMDYWGQGTSVTVSS
# VL: QILLTQSPAIMSASPGEKVTITCSASSSVSYMHWFQQKPGTSPKLWIYSTSNLASGVPARFSGSGSGTSYSLTISRMEAEDAATYYCQQRSSYPLTFGAGTKLELK
# B3: 16E03 mouse Fab (periplasmic extract) (Fab, V domains shown)
# VH: QVQLQQSGAELARPGASVKMSCKASGYTFTSYTMHWIKQRPGQGLEWIGYINPSSGHTYYNQKFKDKATLTPDKSSSTAYMQLTSLTSEDSAVYYCARRIPTAYAMDYWGQGTSVTVSS
# VL: EIQMTQSHKFMSTSVGDRVSITCKASQDVGTAVAWYQQKPGQSPKLLIYWASTRHTGVPDRFTGSGSGTDFTLTISNVQSEDLADYFCQQYSSYPLTFGAGTKLELK
# B4: 14C05 mouse Fab (periplasmic extract) (Fab, V domains shown)
# VH: EVMLVESGPELKKPGETVKISCKASGYTFTNYGMNWVKQAPGKGLKWMGSINTYTGEATYADDFKGRFAFSLETSANTAYLQIDNLKNEDTATYFCARGDYYGRGTWFAYWGQGTLVTVSA
# VL: ETTVTQSHKFMSTSVGDRVSITCKASQDVSTAVAWYQQKPGQSPKLLIYSASYRYPGVPDRFTGSGSGTDFTFTISSVQAEDLAVYYCQQDYSSPWTFGGGTKLEIK
# B5: 13H11 mouse Fab (periplasmic extract) (Fab, V domains shown)
# VH: QIQLVQSGPELKKPGETVKISCKASGYTFENFGMNWVKQAPGKGLKWMGWINTYTGEATYADDFKGRFAFSLETSASTAYLQINNLKNEDTATYFCARDGGFRHFDVWGAGTTVTVSS
# VL: ETTVTQSPASLSVATGEKVTIRCITSTDIDDDMNWYQQKPGEPPKLLISEGNTLRPGVPSRFSSSGYGTDFVFTIENMLSEDVADYYCLQSDNLPLTFGAGTKLELK
# B6: 16E10 mouse Fab (periplasmic extract) (Fab, V domains shown)
# VH: QVQLQQSGAELVRPGTSVKISCKASGYTFTNYWLGWVKQRPGHGLEWIGDIYPGGGYTNYNEKFKGKATLTADTSSSTAYMQLSSLTSEDSAVYFCAKFYYYGSSYYFDSWGQGTTLTVSS
# VL: DIVLTQSPSSLSVSAGEKVTLSCKSSQSLLNSGNQENYLAWYQQKPGQPPKLLIYGASTRESGVPDRFTGSGSGTDFTLTISSVQAEDLAVYYCQNDHSYPLTFGAGTKLELK
# B7: 12A12 mouse Fab (periplasmic extract) (Fab, V domains shown)
# VH: QVQMKQSGAELAKPGASVKMSCKASGYTFTNYWMHWVKQRPGQGLEWIGYINPSTGYTDYNQNFKDRATLTADKSSSTAYMQLSSLTSEDSAVYYCIRGSDYYGRDYWGQGTTLTVSS
# VL: DIQMTQTTSSLSASLGDRVTISCRASQDISNYLNWYQQKPDGTLKLLIYYTSRLHSGVPSRFSGSGSGTDYSLTISNLEQEDIATYFCRQGNTLPWTFGGGTKLEIK
# B8: 14D12 mouse Fab (periplasmic extract) (Fab, V domains shown)
# VH: QIQLVQSGPELKKPGETVKISCKASGYTFTNYGMNWVKQTPGKGLKWMGLINTYTGEPTYADDFKGRFAFSLETSASTAYLQINNLKNEDMATYFCARERIYGYLHYFDYWGQGTTLTVSS
# VL: DVVMTQTPASLAVSLGQRATISCKASQSVDYDGDSYMNWYQQKPGQPPKLLIYAASNLESGIPARFSGSGSGTDFTLNIHPVEEEDAATYYCQQSNEDPRTFGGGTKLEIK
# Biological target: Mouse VSIG4-His (mouse)
# Assay: ELISA, Fab P.E. 1:5 on coated antigen
# Chain of Mouse VSIG4-His (mouse) (chain, as listed by the source limits assumed): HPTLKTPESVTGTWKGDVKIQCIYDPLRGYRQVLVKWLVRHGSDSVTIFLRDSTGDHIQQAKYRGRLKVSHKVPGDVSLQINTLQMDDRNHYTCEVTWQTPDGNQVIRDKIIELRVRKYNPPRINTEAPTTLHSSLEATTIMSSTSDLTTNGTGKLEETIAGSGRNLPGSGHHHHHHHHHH
row,ELISA OD450 [OD450],Binder
1,0.065,B1
2,0.057,B2
3,0.057,B3
4,0.059,B4
5,0.057,B5
6,0.058,B6
7,0.063,B7
8,0.054,B8
